Target: p110β (isolated PI3K protein subunit, cell-free kinase ELISA) (UniProt P42338 1-1070, limits assumed)
Test: cell-based or functional assay

Chain of p110β (isolated PI3K protein subunit, cell-free kinase ELISA) (P42338 whole entry): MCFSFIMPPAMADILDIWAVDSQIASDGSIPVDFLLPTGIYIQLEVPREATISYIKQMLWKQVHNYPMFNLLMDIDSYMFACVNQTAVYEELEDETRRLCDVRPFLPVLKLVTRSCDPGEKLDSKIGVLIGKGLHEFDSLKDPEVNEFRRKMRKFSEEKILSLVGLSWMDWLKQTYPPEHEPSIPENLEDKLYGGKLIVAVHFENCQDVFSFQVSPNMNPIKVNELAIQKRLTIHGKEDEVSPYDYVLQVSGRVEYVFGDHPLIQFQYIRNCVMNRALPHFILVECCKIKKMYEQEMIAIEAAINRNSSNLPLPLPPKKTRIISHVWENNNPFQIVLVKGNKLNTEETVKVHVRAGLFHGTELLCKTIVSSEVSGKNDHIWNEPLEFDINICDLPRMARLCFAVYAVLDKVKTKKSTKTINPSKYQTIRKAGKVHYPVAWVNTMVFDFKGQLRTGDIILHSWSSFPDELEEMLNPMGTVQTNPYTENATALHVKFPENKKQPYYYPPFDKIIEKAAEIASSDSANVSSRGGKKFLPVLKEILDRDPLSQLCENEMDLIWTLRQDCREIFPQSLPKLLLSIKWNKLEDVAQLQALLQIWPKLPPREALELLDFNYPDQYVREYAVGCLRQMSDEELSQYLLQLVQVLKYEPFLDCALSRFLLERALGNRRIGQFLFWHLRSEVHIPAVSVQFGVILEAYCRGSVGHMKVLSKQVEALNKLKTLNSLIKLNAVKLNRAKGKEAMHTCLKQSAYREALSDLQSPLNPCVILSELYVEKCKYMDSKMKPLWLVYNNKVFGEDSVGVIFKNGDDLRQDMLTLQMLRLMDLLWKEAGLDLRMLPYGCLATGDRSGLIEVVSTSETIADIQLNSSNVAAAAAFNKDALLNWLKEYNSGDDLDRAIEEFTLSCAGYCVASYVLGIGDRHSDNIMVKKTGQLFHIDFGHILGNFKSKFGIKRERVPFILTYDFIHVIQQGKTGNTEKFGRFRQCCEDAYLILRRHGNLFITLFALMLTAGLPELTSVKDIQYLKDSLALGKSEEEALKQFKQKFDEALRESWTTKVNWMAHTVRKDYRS

activity of the p110b catalytic subunit, measured via ELISA; Half Maximal Inhibitory Concentration (IC50): 105 nM
Binder: RQPKIWFPNRRKPWKKTKKSTKTINPSKYQTIRK [Ante-Selectide-18]
